Measurements from US20190170753A1 (ICAHN SCHOOL OF MEDICINE AT MOUNT SINAI, published 2019).
Where no end group is shown, it is not given here.

Experiments:
[1] = target: T1, HCV core peptide 1 (hepatitis C virus, N-terminal biotin; C-terminal amide); experiment: peptide EIA, 2 ug/mL IgG;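 further: purified mouse IgG binding to individually well-coated synthetic peptides, detected with peroxidase anti-mouse IgG Fc and o-phenylenediamine, IgG incubated at least 1 h at room temperature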
T1 construct: range 1-15
Protocol: (§1) The coated plates were kept dry in a sealed foil pouch and stored at <10 degrees C. until ready for use. A peptide coated plate for each test antibody was blocked using 3% BSA in PBS with 0.5% Tween 20. The blocked plates were washed with distilled water and a 2 ug/mL solution of purified IgG from each test sample diluted in BSA block solution was added to each peptide coated well of the blocked plate and allowed to incubate at room temperature for at least one hour. Following incubation the plates were washed with distilled water. A 200 ng/mL solution of peroxidase labeled F(ab′)2 fragment goat anti-mouse IgG Fc fragment specific (Jackson Immunoresearch) in BSA block solution was added to all wells and incubated at room temperature for 30 minutes. The plates were washed with distilled water and o-phenylenediamine substrate was used as the chromagen to generate signal. Plates were read at 492 nm and the results were analyzed.

[2] = target: T2, HCV core peptide 4 (hepatitis C virus, N-terminal biotin; C-terminal amide); experiment: peptide EIA, 2 ug/mL IgG;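 further: purified mouse IgG binding to individually well-coated synthetic peptides, detected with peroxidase anti-mouse IgG Fc and o-phenylenediamine, IgG incubated at least 1 h at room temperature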
T2 construct: range 7-21
Protocol: as §1

[3] = target: T3, HCV core peptide 6 (hepatitis C virus, N-terminal biotin; C-terminal amide); experiment: peptide EIA, 2 ug/mL IgG;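 further: purified mouse IgG binding to individually well-coated synthetic peptides, detected with peroxidase anti-mouse IgG Fc and o-phenylenediamine, IgG incubated at least 1 h at room temperature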
T3 construct: range 11-25
Protocol: as §1

[4] = target: T4, HCV core peptide 7 (hepatitis C virus, N-terminal biotin; C-terminal amide); experiment: peptide EIA, 2 ug/mL IgG;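 further: purified mouse IgG binding to individually well-coated synthetic peptides, detected with peroxidase anti-mouse IgG Fc and o-phenylenediamine, IgG incubated at least 1 h at room temperature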
T4 construct: range 13-27
Protocol: as §1

[5] = target: T5, HCV core peptide 10 (hepatitis C virus, N-terminal biotin; C-terminal amide); experiment: peptide EIA, 2 ug/mL IgG
T5 construct: range 19-33
Protocol: as §1

[6] = target: T6, HCV core peptide 14 (hepatitis C virus, N-terminal biotin; C-terminal amide); experiment: peptide EIA, 2 ug/mL IgG
T6 construct: range 27-41
Protocol: as §1

[7] = target: T7, HCV core peptide 18 (hepatitis C virus, N-terminal biotin; C-terminal amide); experiment: peptide EIA, 2 ug/mL IgG
T7 construct: range 35-49
Protocol: as §1

[8] = target: T8, HCV core peptide 20 (hepatitis C virus, N-terminal biotin; C-terminal amide); experiment: peptide EIA, 2 ug/mL IgG
T8 construct: range 39-53
Protocol: as §1

[9] = target: T9, HCV core peptide 21 (hepatitis C virus, N-terminal biotin; C-terminal amide); experiment: peptide EIA, 2 ug/mL IgG
T9 construct: range 41-55
Protocol: as §1

[10] = target: T10, HCV core peptide 30 (hepatitis C virus, N-terminal biotin; C-terminal amide); experiment: peptide EIA, 2 ug/mL IgG
T10 construct: range 59-73
Protocol: as §1

[11] = target: T11, HCV core peptide 37 (hepatitis C virus, N-terminal biotin; C-terminal amide); experiment: peptide EIA, 2 ug/mL IgG
T11 construct: range 73-87
Protocol: as §1

[12] = target: T12, HCV core peptide 38 (hepatitis C virus, N-terminal biotin; C-terminal amide); experiment: peptide EIA, 2 ug/mL IgG
T12 construct: range 75-89
Protocol: as §1

[13] = target: T13, HCV core peptide 39 (hepatitis C virus, N-terminal biotin; C-terminal amide); experiment: peptide EIA, 2 ug/mL IgG
T13 construct: range 77-91
Protocol: as §1

[14] = target: T14, HCV core peptide 43 (hepatitis C virus, N-terminal biotin; C-terminal amide); experiment: peptide EIA, 2 ug/mL IgG
T14 construct: range 85-99
Protocol: as §1

[15] = target: T15, HCV core peptide 48 (hepatitis C virus, HELM PEPTIDE1{[O=C1N[C@H]2[C@H](CS[C@H]2CCCCC(=O)[*:2])N1].S.G.S.G.G.W.L.L.S.P.R.G.S.R.P.S.W.G.P.[am]}$$$$V2.0; SMILES …); experiment: peptide EIA, 2 ug/mL IgG
T15 construct: also called aa 95-109
T15 peptide: SGSGGWLLSPRGSRPSWGP
Protocol: as §1

[16] = target: HCV core peptide 59 (hepatitis C virus, N-terminal biotin; C-terminal amide); experiment: peptide EIA, 2 ug/mL IgG
Protocol: as §1

[17] = target: HCV core peptide 63 (hepatitis C virus, N-terminal biotin; C-terminal amide); experiment: peptide EIA, 2 ug/mL IgG
Protocol: as §1

[18] = target: HCV core peptide 66 (hepatitis C virus, N-terminal biotin; C-terminal amide); experiment: peptide EIA, 2 ug/mL IgG
Protocol: as §1

[19] = target: HCV core peptide 69 (hepatitis C virus, N-terminal biotin; C-terminal amide); experiment: peptide EIA, 2 ug/mL IgG
Protocol: as §1

[20] = target: HCV core peptide 71 (hepatitis C virus, N-terminal biotin; C-terminal amide); experiment: peptide EIA, 2 ug/mL IgG
Protocol: as §1

[21] = target: HCV core peptide 73 (hepatitis C virus, N-terminal biotin; C-terminal amide); experiment: peptide EIA, 2 ug/mL IgG
Protocol: as §1

[22] = target: HCV core peptide 77 (hepatitis C virus, N-terminal biotin; C-terminal amide); experiment: peptide EIA, 2 ug/mL IgG
Protocol: as §1

[23] = target: T16, HCV core peptide 81 (hepatitis C virus, N-terminal biotin; C-terminal amide); experiment: peptide EIA, 2 ug/mL IgG
T16 construct: range 161-175
Protocol: as §1

[24] = target: T17, HCV core peptide 82 (hepatitis C virus, N-terminal biotin; C-terminal amide); experiment: peptide EIA, 2 ug/mL IgG
T17 construct: range 163-177
Protocol: as §1

[25] = target: HCV core peptide 85 (hepatitis C virus, N-terminal biotin; C-terminal amide); experiment: peptide EIA, 2 ug/mL IgG
Protocol: as §1

[26] = target: HCV core peptide 86 (hepatitis C virus, N-terminal biotin; C-terminal amide); experiment: peptide EIA, 2 ug/mL IgG
Protocol: as §1

[27] = target: HCV core peptide 87 (hepatitis C virus, N-terminal biotin; C-terminal amide); experiment: peptide EIA, 2 ug/mL IgG
Protocol: as §1

[28] = target: HCV core peptide 88 (hepatitis C virus, N-terminal biotin; C-terminal amide); experiment: peptide EIA, 2 ug/mL IgG
Protocol: as §1

[29] = target: HCV core peptide 89 (hepatitis C virus, N-terminal biotin; C-terminal amide); experiment: peptide EIA, 2 ug/mL IgG
Protocol: as §1

[30] = target: Mut6T110S biotin labeled HCV core peptide (hepatitis C virus, biotin labeled (position not given)); experiment: capture EIA; Ab 15.6 ng/mL; bt-peptide 500 ng/mL (summary of Table 7)
[31] = target: T18, C113WT biotin labeled HCV core peptide (hepatitis C virus, also: biotin labeled, position not given here); experiment: as above
T18 peptide: RGSRPSWGPTD

[32] = target: T19, C113T109N biotin labeled HCV core peptide (hepatitis C virus, also: biotin labeled, position not given here); experiment: as above
T19 construct: also called C113T110N
T19 peptide: RGSRPSWGPND

[33] = target: T20, WT1STHV biotin labeled HCV core peptide (hepatitis C virus, biotin labeled (position not given)); experiment: as above
T20 peptide: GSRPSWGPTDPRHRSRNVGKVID

B1: Neo4 mouse monoclonal antibody (antibody, V domains shown)
VH: QIQLKESGPAVIKPSQSLSLTCIVSGFSITSSVYCWQWIRQPPGKGLEWMGRICYDGSVDYSPSITSRGTISRDTSLNKVFFQLSSVTNEDTAMYYCSRENHIDYYDTTYPSFDVWGAGTTVTVSS
VL: DIVLTQSPASLIVSLGQRATISCRASKSVNEYGYTYMHWYQQKPGLPPKLLIYLASNLDSGVPARFSGSGSGTDFTLNIHPVEEEDAATYYCQHSRELPYTFGGGTKLEIKR
notes: Mouse hybridoma antibody, isotype IgG1, purified with Protein G; also called HCV Neo4
In the case of B1, the “OD (A492 nm)” value [1] is reported as 0.06 OD, the “OD (A492 nm)” value [2] is reported as 0.06 OD and the “OD (A492 nm)” value [3] is reported as 0.06 OD. The “OD (A492 nm)” value [4] was 0.07 OD, the “OD (A492 nm)” value [5] was 0.05 OD and the “OD (A492 nm)” value [6] was 0.06 OD. The “OD (A492 nm)” value [7] was 0.05 OD, the “OD (A492 nm)” value [8] was 0.05 OD and the “OD (A492 nm)” value [9] was 0.05 OD. The “OD (A492 nm)” value [10] was 0.05 OD, the “OD (A492 nm)” value [11] was 0.04 OD and the “OD (A492 nm)” value [12] was 0.05 OD. The “OD (A492 nm)” value [13] was 0.05 OD, the “OD (A492 nm)” value [14] was 0.05 OD and the “OD (A492 nm)” value [15] was 0.04 OD. The “OD (A492 nm)” value [16] was 0.05 OD, the “OD (A492 nm)” value [17] was 0.04 OD and the “OD (A492 nm)” value [18] was 0.05 OD. The “OD (A492 nm)” value [19] was 0.05 OD, the “OD (A492 nm)” value [20] was 0.05 OD and the “OD (A492 nm)” value [21] was 0.04 OD. The “OD (A492 nm)” value [22] was 0.05 OD, the “OD (A492 nm)” value [23] was 0.04 OD and the “OD (A492 nm)” value [24] was 0.04 OD. For the same binder, the “OD (A492 nm)” value [25] was 0.05 OD, the “OD (A492 nm)” value [26] was 0.05 OD and the “OD (A492 nm)” value [27] was 0.05 OD. For the same binder, the “OD (A492 nm)” value [28] was 0.05 OD, the “OD (A492 nm)” value [29] was 0.05 OD and the “signal at 492 nm” value [30] was 0.25 A492. For the same binder, the “signal at 492 nm” value [31] was 0.0697 A492, the “signal at 492 nm” value [32] was 0.0736 A492 and the “signal at 492 nm” value [33] was 1.42 A492.
